# Source: the Human Domainome abundance scans (Beltran et al. 2025)
# ± gives the uncertainty stated by the source.
# B1: Transcriptional regulator ERG, residues 117 to 197; numbered along this chain, P11308 (parent)
# chain: NMTTNERRVIVPADPTLWSTDHVRQWLEWAVKEYGLPDVNILLFQNIDGKELCKMTKDDFQRLTPSYNADILLSHLHYLRE
# Variants of: B1
# Test: abundance fitness (aPCA) (normalised: wild type 0, dead -1); higher = more abundant; growth selection in yeast, the domain comes from the species named
# Details: Homo sapiens
row,Variant,abundance fitness
1,NMTTNERRVIVPADPTLWSTDHVRQWLEWAVKEYGLPDVNISLFQNIDGKELCKMTKDDFQRLTPSYNADILLSHLHYLRE,0.012 ± 0.041
2,NMTTNERRVIVPADPTLWSTDHVRQWLEWAVKEYGLPDVNILLFQNVDGKELCKMTKDDFQRLTPSYNADILLSHLHYLRE,0.006 ± 0.042
3,NMTTNERRVIVPADPTLWSDDHVRQWLEWAVKEYGLPDVNILLFQNIDGKELCKMTKDDFQRLTPSYNADILLSHLHYLRE,-0.206 ± 0.063
4,NMTTNERRVIVPADPTLWSTDHVRQWLEWAVKEYGLPDVNILLFQNIDSKELCKMTKDDFQRLTPSYNADILLSHLHYLRE,-0.737 ± 0.081
5,NMTTNERRVIVPADPTLWSTDHVRQWLHWAVKEYGLPDVNILLFQNIDGKELCKMTKDDFQRLTPSYNADILLSHLHYLRE,0.005 ± 0.12
6,NMTTNERRKIVPADPTLWSTDHVRQWLEWAVKEYGLPDVNILLFQNIDGKELCKMTKDDFQRLTPSYNADILLSHLHYLRE,0.16 ± 0.06
7,NMTTNERRVIVPADPTLASTDHVRQWLEWAVKEYGLPDVNILLFQNIDGKELCKMTKDDFQRLTPSYNADILLSHLHYLRE,-0.676 ± 0.09
8,NMTTNERRVIVPADPTLWITDHVRQWLEWAVKEYGLPDVNILLFQNIDGKELCKMTKDDFQRLTPSYNADILLSHLHYLRE,-0.697 ± 0.17
9,NMTTNERRVIVPADPTLWSTDHVRQWLEWAVKEYGLPDVNILLFQNIDGKELCKMTKDDFQRLTPSYNADIYLSHLHYLRE,-0.669 ± 0.18
10,NMTTNERRVIVPADPTLWSTDHVRQWLEWAVKEYGLPDVNILLFQNIDQKELCKMTKDDFQRLTPSYNADILLSHLHYLRE,-0.836 ± 0.19
11,NMTTNERRVIVPADPTLWSTDHVRQWLEWAVKEYGLPDVNILLFQNIDGKELCKMTKDDVQRLTPSYNADILLSHLHYLRE,-0.083 ± 0.054
12,NMTTNERRVIVPADPTLWSTDHVRQWLEWAVKEYGLPDVNIGLFQNIDGKELCKMTKDDFQRLTPSYNADILLSHLHYLRE,0.033 ± 0.029
13,WMTTNERRVIVPADPTLWSTDHVRQWLEWAVKEYGLPDVNILLFQNIDGKELCKMTKDDFQRLTPSYNADILLSHLHYLRE,-0.168 ± 0.081
14,NMTTNERRVIVPADPTLWSTDHVRQWLEWAVKEYGLPDVNILLFQNTDGKELCKMTKDDFQRLTPSYNADILLSHLHYLRE,-0.242 ± 0.068
15,NMTTNERRVIVPADPTLWSTDHVRQWLEWAVKEYGLPDVNILLFQNIDGKELCKMTKDDFQRLTPSYNADILESHLHYLRE,-0.293 ± 0.081
16,NMTTNERRVIVPADPTLWSTDHPRQWLEWAVKEYGLPDVNILLFQNIDGKELCKMTKDDFQRLTPSYNADILLSHLHYLRE,-0.877 ± 0.2
17,NMTTNERRVIVPADPTLWSTDHVRQWLEWAVKEYGLPDVNILLFQNIDGKEYCKMTKDDFQRLTPSYNADILLSHLHYLRE,-0.883 ± 0.13
18,NMTTNERRVIVPADPTLWSTDHVRQWLNWAVKEYGLPDVNILLFQNIDGKELCKMTKDDFQRLTPSYNADILLSHLHYLRE,0.012 ± 0.081
19,NMTTNERRVIVPADPTLWSTDHVRQWLEWAVKEYGLPDVNILLFQNIDGKELCKMTKDDFQRTTPSYNADILLSHLHYLRE,-0.476 ± 0.18
20,NMTTNERRVIVPADPTLWSTDHVRQWLEWAVKEYGLPDVNILLFQNIDGKELCKMTKDDFQRLTPHYNADILLSHLHYLRE,-0.107 ± 0.13
21,NMTTNERRVIVPADPTLWSTDHVRQWLIWAVKEYGLPDVNILLFQNIDGKELCKMTKDDFQRLTPSYNADILLSHLHYLRE,-0.108 ± 0.092
22,NMTTNERRVIVPADPTLWSTDHVRQWLEWAVKEYGLPDVNILLFQNIDGKELCKMTKDDFRRLTPSYNADILLSHLHYLRE,-0.026 ± 0.041
23,NMTTNERRVIVPADPTLWSTDHVRQWLEWAVKEYGLPDVNRLLFQNIDGKELCKMTKDDFQRLTPSYNADILLSHLHYLRE,-0.187 ± 0.036

row,Variant,abundance fitness
1,NMTTNERRVIVPADRTLWSTDHVRQWLEWAVKEYGLPDVNILLFQNIDGKELCKMTKDDFQRLTPSYNADILLSHLHYLRE,-0.835 ± 0.09
2,NMTTNERRVIVCADPTLWSTDHVRQWLEWAVKEYGLPDVNILLFQNIDGKELCKMTKDDFQRLTPSYNADILLSHLHYLRE,-0.644 ± 0.12
3,NMTTNERRVIVPADPTLWSTDHVRQWLEWAVKEYGLPDVNILLFQNIDGKELCKMTKDDFQRLTPSYNATILLSHLHYLRE,-0.157 ± 0.078
4,NMTTNERRVIVPVDPTLWSTDHVRQWLEWAVKEYGLPDVNILLFQNIDGKELCKMTKDDFQRLTPSYNADILLSHLHYLRE,-0.01 ± 0.044
5,NMTTNERRVIVPADPTLWSTDHVRQWLEWAVKEYGLPDVNILLFQNIDGKELEKMTKDDFQRLTPSYNADILLSHLHYLRE,-0.471 ± 0.11
6,NMTTNERRVIVPADPTLWSTDHVRQWLEWAVKEYGLPDVNILLFQNIDGKELCKMTKRDFQRLTPSYNADILLSHLHYLRE,0.011 ± 0.046
7,NMTTNERRVIVPADPTLWSTDHVRQWLWWAVKEYGLPDVNILLFQNIDGKELCKMTKDDFQRLTPSYNADILLSHLHYLRE,-0.16 ± 0.058
8,NMTTNERRVIVPADPTLWSTDHVRQWLEWAWKEYGLPDVNILLFQNIDGKELCKMTKDDFQRLTPSYNADILLSHLHYLRE,-0.439 ± 0.09
9,NMTTNERRVIVPADPHLWSTDHVRQWLEWAVKEYGLPDVNILLFQNIDGKELCKMTKDDFQRLTPSYNADILLSHLHYLRE,0.128 ± 0.09
10,NMTTNERRVLVPADPTLWSTDHVRQWLEWAVKEYGLPDVNILLFQNIDGKELCKMTKDDFQRLTPSYNADILLSHLHYLRE,-0.058 ± 0.047
11,NMTTNERRVIVPADPTLWSTDHVRQWLEDAVKEYGLPDVNILLFQNIDGKELCKMTKDDFQRLTPSYNADILLSHLHYLRE,0.21 ± 0.057
12,NMTTNERRVIVPMDPTLWSTDHVRQWLEWAVKEYGLPDVNILLFQNIDGKELCKMTKDDFQRLTPSYNADILLSHLHYLRE,-0.033 ± 0.074
13,NRTTNERRVIVPADPTLWSTDHVRQWLEWAVKEYGLPDVNILLFQNIDGKELCKMTKDDFQRLTPSYNADILLSHLHYLRE,-0.049 ± 0.037
14,NMTTNERRHIVPADPTLWSTDHVRQWLEWAVKEYGLPDVNILLFQNIDGKELCKMTKDDFQRLTPSYNADILLSHLHYLRE,0.034 ± 0.048
15,NMTTNERRVIVPADPTLWSTDHVRQWLEWAVKEYGLPDVNILLFQNIDGKELCKMTKDDFQRLTPSYNADILLSHCHYLRE,-0.151 ± 0.1
16,NMTTNERRVIVPADPTEWSTDHVRQWLEWAVKEYGLPDVNILLFQNIDGKELCKMTKDDFQRLTPSYNADILLSHLHYLRE,0.093 ± 0.043
17,NMTTNERAVIVPADPTLWSTDHVRQWLEWAVKEYGLPDVNILLFQNIDGKELCKMTKDDFQRLTPSYNADILLSHLHYLRE,-0.084 ± 0.056
18,NMTTNERPVIVPADPTLWSTDHVRQWLEWAVKEYGLPDVNILLFQNIDGKELCKMTKDDFQRLTPSYNADILLSHLHYLRE,-0.137 ± 0.066
19,NMTTNERRVIVPADPTLWSTDHVRQWLEWAVKEYGLPDVNILLFQNIDGKELCKMTKDDFQRLTPSYNADILLSHLHSLRE,0.148 ± 0.056
20,NMTTNERRVIVPADPTLWSTDHVRQWLEWAVKEYGLPDVNILLFQNIDGKELCKMTKDDFQRLTPSYNADILLSHLHYPRE,-0.19 ± 0.1
21,NMTTNERRVIVPADPTLWSTDHVRQWLEWAVKEYGLPDVNILLFQNIDGKEQCKMTKDDFQRLTPSYNADILLSHLHYLRE,-0.946 ± 0.17
22,NMTTNERRVIVPADPTLWSTDHVRQWLEWAVKEYGLPDVNILLFQNIDGKELCKCTKDDFQRLTPSYNADILLSHLHYLRE,-0.278 ± 0.1
23,NMTTNERRVIVPADPTLWSTDHVRQWLEWAVKEYGLPDVNILLFQNIDRKELCKMTKDDFQRLTPSYNADILLSHLHYLRE,-0.8 ± 0.069

row,Variant,abundance fitness
1,NMTTNERRVIVPADPTLWSTDHVRQWLEWAVKEYLLPDVNILLFQNIDGKELCKMTKDDFQRLTPSYNADILLSHLHYLRE,-0.069 ± 0.042
2,NMTTNERRVIVPADPTLWSTDHVRQWLEWAVKEYGLPDVNILLFQNIDGKELCKMTKDDFQRLTPSYNADILLSELHYLRE,-0.163 ± 0.099
3,NMTTNERRVIVPADPTLWSTDHVRQWLEWAVKEYGLPDVNILFFQNIDGKELCKMTKDDFQRLTPSYNADILLSHLHYLRE,-0.105 ± 0.064
4,NMTTNERRVTVPADPTLWSTDHVRQWLEWAVKEYGLPDVNILLFQNIDGKELCKMTKDDFQRLTPSYNADILLSHLHYLRE,0.264 ± 0.062
5,NMTTNERRVIVPADPTLWSTDHVRQWLEWAVKEYGLPDVNILLFQNIDGKELCKMTKDDFQRMTPSYNADILLSHLHYLRE,-0.003 ± 0.067
6,NMTTNERRVIVPADPTLWPTDHVRQWLEWAVKEYGLPDVNILLFQNIDGKELCKMTKDDFQRLTPSYNADILLSHLHYLRE,-0.994 ± 0.17
7,NMTTNERRVIVPADPTLWSTDHVRFWLEWAVKEYGLPDVNILLFQNIDGKELCKMTKDDFQRLTPSYNADILLSHLHYLRE,-0.072 ± 0.08
8,NMTTNERRVIVPADPTLWSTDHVRQWLEWAVKEYGLPDVNILLFQNIDGKELWKMTKDDFQRLTPSYNADILLSHLHYLRE,-0.561 ± 0.11
9,NMTTNERRVIVPADPTLWSTDHVRQWLEWAVKEYGLPDVNILLFQFIDGKELCKMTKDDFQRLTPSYNADILLSHLHYLRE,-0.133 ± 0.077
10,NMTTNERRVIVPADPTLWSTDHVRQWLEWAVKEYGTPDVNILLFQNIDGKELCKMTKDDFQRLTPSYNADILLSHLHYLRE,-0.357 ± 0.083
11,NMTTNERRVIVPADPTLWSTDHVRQWLEWAVKEYGWPDVNILLFQNIDGKELCKMTKDDFQRLTPSYNADILLSHLHYLRE,-0.253 ± 0.047
12,NMTTNERRVIVPADPTLWSFDHVRQWLEWAVKEYGLPDVNILLFQNIDGKELCKMTKDDFQRLTPSYNADILLSHLHYLRE,-0.205 ± 0.11
13,NMTTNERRVIVPADPTLWSTDHVRQWLEWAVKEYGLPDVNILLFQNIDGKELCKMTKDDFQRLTPNYNADILLSHLHYLRE,0.11 ± 0.13
14,NMTTNERRVIVPADPTLWSTDHVRQWLEWAVKEYGLPDVNILLFQNIDGKELCKMTKDDFQRLTMSYNADILLSHLHYLRE,0.048 ± 0.077
15,NMTTNERRVIVPADPTLWSTDHVRQWLEWAVKFYGLPDVNILLFQNIDGKELCKMTKDDFQRLTPSYNADILLSHLHYLRE,-0.034 ± 0.089
16,NMTTNERRVIVHADPTLWSTDHVRQWLEWAVKEYGLPDVNILLFQNIDGKELCKMTKDDFQRLTPSYNADILLSHLHYLRE,-0.452 ± 0.12
17,NMTTNERRLIVPADPTLWSTDHVRQWLEWAVKEYGLPDVNILLFQNIDGKELCKMTKDDFQRLTPSYNADILLSHLHYLRE,0.096 ± 0.035
18,NMTTNERRVIVPADPTLWSTDHVRQWLEWAVKEYGLPDVNILLCQNIDGKELCKMTKDDFQRLTPSYNADILLSHLHYLRE,-0.215 ± 0.068
19,NMTTNERRVIYPADPTLWSTDHVRQWLEWAVKEYGLPDVNILLFQNIDGKELCKMTKDDFQRLTPSYNADILLSHLHYLRE,0.113 ± 0.072
20,NMTTNERRVIVPADPTLWSTDHVRQWLEWAVKEYGLPDVNILLFQNIDGKELCKFTKDDFQRLTPSYNADILLSHLHYLRE,-0.136 ± 0.12
21,NMTTNERRVIVPADPTLWSTDHVRQWLEWAVKEYGLPDVNILLFQNIDGKELCKMTKDDFQRLTPSYNADICLSHLHYLRE,-0.726 ± 0.13
22,NMTTNVRRVIVPADPTLWSTDHVRQWLEWAVKEYGLPDVNILLFQNIDGKELCKMTKDDFQRLTPSYNADILLSHLHYLRE,-0.142 ± 0.042
